Legend:
mouse galectin-7 = molecular target: T1, mouse galectin-7 (mouse, UniProt O54974 1-136, limits assumed); test: microscale thermophoresis, Red-NHS labeled G1N1 (2 nM)
T1 construct: also called mouse GAL-7
T1 sequence (looked up): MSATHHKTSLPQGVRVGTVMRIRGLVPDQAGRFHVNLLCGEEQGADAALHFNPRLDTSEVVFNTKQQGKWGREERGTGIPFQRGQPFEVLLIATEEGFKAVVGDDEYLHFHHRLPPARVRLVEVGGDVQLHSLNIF
Protocol: (§1) FIG. 9A: Red-NHS labeled human GAL-1 (5 nM) incubated with G1N1 or alpha-lactose (a-lactose). […] In the same experiment, no binding was detected at 10 μM for human GAL-7, mouse GAL-7, human GAL-8 and human GAL-13. All experiments were performed in 20 mM Tris-HCl 150 mM NaCl and 0.1% F127. Binding affinities (Kd values) were determined from the fitted curves (three parameter dose-response curve) obtained from data of at least 3 independent experiments. For each value, 95% confidence intervals (Cl) are indicated.

[1] = molecular target: T2, recombinant human galectin-1 (human, UniProt P09382 2-135); test: microscale thermophoresis (MST), Red-NHS labeled human GAL-1 (5 nM) with G1N1 or alpha-lactose
T2 construct: Recombinant, made in E. coli BL21(DE3) from pET-22b(+); also called hGAL-1; GAL-1
Protocol: as §1

human galectin-2 = molecular target: T3, human galectin-2 (human, UniProt P05162 1-132); test: ELISA, human galectin-2 immobilized at 1 µM, anti-His-tag detection [left panel (1 µM]
T3 construct: Recombinant, made in E. coli; also called Gal-2
T3 sequence: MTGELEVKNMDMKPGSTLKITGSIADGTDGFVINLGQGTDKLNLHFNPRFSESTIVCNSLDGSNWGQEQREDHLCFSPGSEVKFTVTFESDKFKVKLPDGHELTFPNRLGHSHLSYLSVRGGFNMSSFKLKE
Protocol: (§2) Briefly, human galectins were immobilized at 1 and 5 μM for 16 h at 4° C. After a blocking step with PBS containing 10% (v/v) BSA (blocking buffer), increasing concentrations of G1N1 were added to each well and incubated for 1 h at room T° C. […] The colorimetric assay was carried out with 3,3′,5,5′-tetramethylbenzidine (Sigma-Aldrich, ON, Canada) according to the manufacturers recommendations.
(§3) ELISA assays. Recombinant human galectins were immobilized in 96-well plates at the indicated concentrations for 16 h at 4° C. After a blocking step with PBS containing 10% (v/v) bovine serum albumin (BSA) (blocking buffer), increasing concentrations of G1N1 were added to each well and incubated for 1 h at room temperature. […] The colorimetric assay was carried out with TMB (Sigma-Aldrich, MO, USA) according to the manufacturer's recommendations.

human galectin-7 = molecular target: T4, human galectin-7 (human, UniProt P47929 1-136); test: ELISA, human galectin-7 immobilized at 1 µM, anti-His-tag detection [left panel (1 µM]
T4 construct: Recombinant, made in E. coli; also called human GAL-7; Gal-7
Protocol: as §2, §3

human galectin-13 = molecular target: T5, human galectin-13 (human, UniProt Q9UHV8 1-139); test: ELISA, human galectin-13 immobilized at 1 µM, anti-His-tag detection [left panel (1 µM]
T5 construct: Recombinant, made in E. coli; also called human GAL-13; Gal-13
T5 sequence: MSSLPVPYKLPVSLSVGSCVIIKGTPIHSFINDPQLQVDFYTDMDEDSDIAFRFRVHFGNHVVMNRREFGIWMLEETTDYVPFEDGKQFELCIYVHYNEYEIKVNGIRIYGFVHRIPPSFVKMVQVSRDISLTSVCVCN
Protocol: as §2, §3

[2] = molecular target: T2, recombinant human galectin-1; test: microscale thermophoresis, Red-NHS labeled human GAL-1 (5 nM), G1N1 titrated; value in brackets is the 95% CI
Protocol: as §1

[3] = molecular target: T2, recombinant human galectin-1; test: microscale thermophoresis, Red-NHS labeled G1N1 (2 nM), human galectin-1 titrated; value in brackets is the 95% CI
Protocol: as §1, with “FIG.” for “FIG. 9A: Red-NHS labeled human GAL-1 (5 nM) incubated with G1N1 or alpha-lactose (a-lactose).”

[4] = molecular target: T6, recombinant mouse galectin-1 (mouse, UniProt P16045 2-135); test: microscale thermophoresis, Red-NHS labeled G1N1 (2 nM), mouse galectin-1 titrated; value in brackets is the 95% CI
T6 construct: also called mGAL-1

[5] = molecular target: T7, GAL-1-Biotin (biotinylated human GAL-1) (Homo sapiens, UniProt P09382); test: non-adsorbed phage ELISA of VHH clones on GAL-1-Biotin; format: binding; conditions: HRP-conjugated anti-M13 antibody, TMB substrate; 282 clones tested
T7 construct: made in house; host or cells: E. coli BL21 (DE3), pET-22b(+)
Protocol: Generation and production of single chain camelid antibodies. Galectin-specific single chain (VHH) camelid antibodies were obtained following in vitro screening of a non-immune humanized synthetic single domain antibodies (hsd2Ab) library that contains more than 3×10^9 clones expressed at the surface of M13 phage [Moutel et al., 2016]. The panning was carried out against immobilized recombinant human galectin-1 devoid of carbohydrate in its glycan binding site (GBS). Prior to the phage display selection, galectin-1-biotin and GST-Biotin were bound to streptavidin magnetic beads (Dynabeads® M-280 Streptavidin, Life Technologies) with a 50 nM final concentration of biotinylated protein for the first round and 10 nM final concentration of biotinylated protein for the second and third rounds. […] Following three-rounds of phage display, clones were picked randomly and analyzed by non-adsorbed phage ELISA using HRP-conjugated anti-M13 antibody (GE Healthcare) and a colorimetric substrate (TMB, tetramethylbenzidine, Thermo Fischer).
Following an initial pre-screen round of phage display carried out with GST-biotin to deplete the library from unspecific binders, unbound VHHs were incubated with GAL-1-Biotin beads. […] A total of 282 VHHs were then picked and analyzed by ELISA for galectin-1 binders.

[6] = molecular target: T8, recombinant human GAL-1 (rhGAL-1) (Homo sapiens, UniProt P09382); test: inhibition of galectin-1-induced apoptosis of Jurkat T cells (annexin V/propidium iodide flow cytometry); format: cell-based; conditions: rhGAL-1 2.25 μM, 4 h at 37° C., increasing concentrations of nanobody
T8 construct: made in house; host or cells: E. coli BL21 (DE3), pET-22b(+)
Protocol: Briefly, Jurkat T cells were incubated with recombinant human GAL-1 (rhGAL-1; 2.25 μM) for 4h at 37° C. in presence of increasing concentrations of G1N1 and G1N2. Apoptosis was measured by flow cytometry using conventional annexin V/propidium iodide staining. Results represent data recorded on 5000 cells. Errors bars represent standard deviation.
Jurkat T cells were incubated with increasing concentrations of G1N1 pre-incubated with rhGAL-1 (2.25 μM) for 4 h at 37° C., after which apoptosis was measured by flow cytometry using Annexin V/propidium iodide staining. 5000 events were recorded. Errors bars represent standard deviation.
Apoptosis of human T cells. In vitro apoptosis assays were carried out using the standard in vitro human Jurkat T cell model system, fluorescein isothiocyanate (FITC)-labeled annexin V (Biolegend, San Diego, CA, USA) and propidium iodide (PI). Briefly, recombinant galectin-1 was pre-incubated for 1 h at 4° C. in serum free RPMI 1640 medium before addition to Jurkat cells. The mixture was incubated at 37° C. for 4 h. Cells were then washed once in PBS and once in binding buffer (0.01 M HEPES, 0.14 M NaCl, 2.5 mM CaCl2, pH 7.4). For staining, cells were incubated for 15 min with FITC-labeled annexin V in the dark at room temperature. The PI (0.25 μg/mL) stain was added to cells just before analysis by flow cytometry.

T2 sequence (P09382 2-135 limits assumed): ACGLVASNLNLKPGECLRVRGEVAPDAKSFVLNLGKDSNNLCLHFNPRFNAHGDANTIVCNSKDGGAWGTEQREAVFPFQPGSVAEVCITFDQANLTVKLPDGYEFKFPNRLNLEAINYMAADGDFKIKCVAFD
T6 sequence (P16045 2-135 limits assumed): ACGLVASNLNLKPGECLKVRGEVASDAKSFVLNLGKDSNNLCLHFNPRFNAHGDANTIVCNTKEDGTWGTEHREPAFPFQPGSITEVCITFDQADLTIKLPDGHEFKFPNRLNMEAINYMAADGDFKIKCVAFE
T7 sequence (P09382 whole entry): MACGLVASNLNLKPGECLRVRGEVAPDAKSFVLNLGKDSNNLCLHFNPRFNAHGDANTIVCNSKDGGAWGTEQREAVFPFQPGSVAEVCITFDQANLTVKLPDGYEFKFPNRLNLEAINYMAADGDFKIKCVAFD
T8 sequence (P09382 whole entry): as above
T4 sequence (P47929 whole entry): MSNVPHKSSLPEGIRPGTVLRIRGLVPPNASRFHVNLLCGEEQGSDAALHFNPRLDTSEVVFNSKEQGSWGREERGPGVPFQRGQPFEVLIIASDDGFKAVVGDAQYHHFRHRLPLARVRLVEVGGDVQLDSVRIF

B1: G1N1 nanobody (galectin-1-specific VHH, clone D06) (VHH)
VHH: EVQLQASGGGFVQPGGSLRLSCAASGSTFSEDAMGWFRQAPGKEREFVSAISGFANPHSYYADSVKGRFTISRDNSKNTVYLQMNSLRAEDTATYYCAASHKKTRAPAATFETYWGQGTQVTVSS
notes: From a synthetic humanized nanobody library (hsd2Ab); For apoptosis, MST and ELISA it was made in E. coli from pHEN2 with 6xHis and cMyc tags; also called GAL-1-specific Nb #1; lead VHH clone G1N1; not shown: 6xHis and cMyc tags from vector pHEN2
- binding result (mouse galectin-7): no binding (tested: 10 µM)
- fold higher affinity than lactose for galectin-1 [1]: ~200 fold
- binding result (human galectin-2): no binding (tested: 10 µM)
- binding result (human galectin-7): no binding (tested: 10 µM)
- binding result (human galectin-13): no binding (tested: 10 µM)
- Kd [2]: 87 nM
- Kd [3]: 750 nM
- Kd [4]: 24.6 nM

B2: G1N2: galectin-1-specific single-domain VHH nanobody, SEQ ID NO:9; weak-binding second clone from phage display (protein)
VHH: MAEVQLQASGGGFVQPGGSLRLSCAASGSTYFHTAMGWFRQAPGKEREFVSAISGFANPHRYYASSVKGRFTISRDNSKNTVYLQMNSLRAEDTATYYCANLISTNRGWLMGYWCQGTQVTVSS
modifications: G1N2 VHH
- binding in phage ELISA in the presence of GAL-1-Biotin [5]: weak binding
- inhibition of galectin-1-induced apoptosis of Jurkat T cells [6]: not
